# Assay results published in the DeepSol protein solubility set.
# Test: soluble on expression in E. coli; label from the status in PepcDB or PDB records
row,Sequence,soluble on expression in E. coli
1,MKEKKKEIEKLLARPDLTPEQMKNYGMEYAKIEEIENITNRIKETQEFIELLREEGENELEIEKYEKELDQLYQELLFLLSPEASDKAIVEIRPGTGGEEAALFARDLFRMYTRYAERKGWNLEVAEIHETDLGGIREVVFFVKGKNAYGILKYESGVHRVQRVPVTESGGRIHTSTATVAVLPEIEEKDIEIRPEDLKIETFRASGHGGQYVNKTESAVRITHLPTGIVVSCQNERSQYQNKQTALRILRARLYQLQKEQKEREISQKRKSQIGTGERSEKIRTYNFPQNRVTDHRINYTSYRLQEILDGDLDEIISKLIEHDIENNLEEVLGIGASVEEK,soluble
2,CLKEGGDSNSEKFIVGTNATYPPFEFVDKRGEVVGFDIDLAREISNKLGKTLDVREFSFDALILNLKQHRIDAVITGMSITPSRLKEILMIPYYGEEIKHLVLVFKGENKHPLPLTQYRSVAVQTGTYQEAYLQSLSEVHIRSFDSTLEVLMEVMHGKSPVAVLEPSIAQVVLKDFPALSTATIDLPEDQWVLGYGIGVASDRPALALKIEAAVQEIRKEGVLAELEQKWGLNNLEHHHHHH,soluble
3,TSDTPALLYIHGLNSSAQSKKACQLIALMKSLGLADRLQVPELHHHPRQAMLQLESAIGALGRPLLVGSSLGGYYATHLAQRHGLKAVLINPAVNPHQLFDGFLGMQQNLYTGEQWQLTEDHIKALAELEVPAPQDPQQFQVWLQTGDETLDYRRAEKFYRACALRIQAGGDHSFQGFAERLPALLSFAGFAPDLLQ,not soluble
4,MAKKEEYVRKPDWLKIKLNTNETYTGLKKMMREKNLHTVCEEAKCPNIHECWAVRKTATFMILGDVCTRACRFCAVKTGLPNELDLQEPERVAESVEIMGLKHAVITAVARDDLKDGGAGVFAETVRAVRRRNPFCTIEVLPSDMMGNDDNLKTLMDARPNILNHNIETVRRLTPRVRARATYERSLEFLRRAKEMQPDIPTKSSLMIGLGETKDEIIETMDDLRANNVDIMTIGQYLQPTKKHLKVQKYYHPDEFAELKEIALSKGFSHCEAGPLVRSSYHADEQVNEAQVREEARKAAAKS,not soluble
5,MGSDKIHHHHHHMVSRSPFESFQWKSDIFNCESTDIDNFYLLLEQEMTRLGMVEKNLGEVGKYKVSLYQSPAAKSGLPSLLISAGFHGEESAGPWGLLHFLSEASADLFERVNLSLLPLVNPTGFSRGHRFNKYGENPNRGFVFENGKPKANEHTSVEGKLLLDHAQLLIAACRDGILTCHEDVLSREAYVYSFEPSQVPGRFSLDLRDTLGGYFPIAVDGEIDACPVKDGLIFNHFDTSFEACLVRSGARVGACTETPALQNFDQRVLANSAAMTHFLALCAPLCD,not soluble
6,MPKETFYNLSEEKRQRIINSAEKEFFRVPLSKASIANIVTGAQIPRGSFYQYFDDLNDLYHYFFEKKFQGFHENFKKELENHQGDLIEAWRQVAKKVLRRIVNSENSIFFENAIFGLNIQRDQNIIDSFANFHHPENKAPEYFDEIDFSFLKIKSKKDLITLRHIMSGIIIQAATAYFSKCDSGQKVDLEEILEGIDKQIDWLKYGVYKEKEHD,not soluble
7,GPGSMRSVIRSCVIFPAAGVAMRHDSSQQWVLNVMYGTGLAPRYGSWKSFGVGDALKENDTPVLYCKALVHASGGGRRARDWVAGCSAALFPSYELLKIAMRHNSSEEDVERYRRHLVETLEKAQGPQTGSANDAGNVTSGEDGSKSDTENDTDINMRLSQMPEVRCFVYDAMRAACFHRYKKVPEEQRVKLFTVAARLGLDEGTTMAIWRLVEKEGIVARDKQRALESPWND,soluble
8,FWGVWASEPPHPVLHASHDAAGWRLRGTKAWCSGASMCTHALVTARVDEQPRLFAVDLREPGVTAGRGGWRNPGMAATDTESVTFDGVPARPVGAPDE,not soluble
9,GKKAVINDSNTPLHLLQPAYQGTYGDLTPEQVKKDIDRVFAYIDKETPARVVDKNTGKVITDYTAMGDEAQLERGAFRLASYEWGVTYSALIAAAETTGDKRYTDYVQNRFRFLAEVAPHFKRVYEEKGKTDSQLLQILTPHALDDAGAVCTAMIKLRLKDESLPVDGLIQNYFDFIINKEYRLADGTFARNRPQRNTLWLDDMFMGIPAVAQMSRYDKEAKNKYLAEAVKQFLQFADRMFIPEKGLYRHGWVESSTDHPAFCWARANGWALLTACELLDVLPEDYPQRPKVMDYFRAHVRGVTALQSGEGFWHQLLDCNDSYLETSATAIYVYCLAHAINKGWIDAIAYGPVAQLGWHAVAGKINEEGQVEGTCVGTGMAFDPAFYYYRPVNVYAAHGYGPVLWAGAEMIRLLNTQHPQMNDSAVQYYQEKQKTTAPIFAVDSE,soluble
10,MSLNDIIEQLQELSETVPVPLELPTFEQLVEVEEQILIGLPNDLKEFLMYGSDVIYGTLEPVTAADPSSHTYLPEVACYAWSIGLPREQIAICQIGDSFYCIDEESQVMFWKKGRFSDKVWESFWHWAEDVWLNREGHHHHHH,soluble
11,MAGLFDKQADLYLDARPNYPSEWFSKLADLTDHHGLAWDAATGNGQAALAVAEHYESVVATDVSESQLKLATPHPKINYRHTPTSMTDDELVELIGGENSVDLITVAQGVHWFDLPRFYSVATRLLRKPGGIIAVWGYNDVIVSPEFDAVQYRLHATTLPFWKYPYIQHIFDSYEALPFPFENVGMGSEGEPLKLEMPKTTSFEGIIRMFKSWSAIVTAREKGVELLPESLVRELETAWGGSDLVRSVVYKAFMIAGKVRV,soluble
12,MSEDADLKIFMDFLVEKTKDAFQPMIAVQVFREYLNEKSHLHDYHYKRFCCDLAPNMNEWNNYSIEARIRLMYALGGKVESDFLERIETHGTVELNKKRKITKYTSNDGILSLQDNRVHFTRFMDFLIQKTKYAVEPMNFNQVLEEFCRLEPDCRHYGVYYVRFHHKLAPNMDALNNYNIYDRIRLMFVLNGKVSGDFFKTIKTHGTVELDRKKKITKYVSNDGKLKLGGNIISDTRLMDFLIQKTRHSVEPMQATNLIFKEFSERPSRILDKMYQLRFYQKLAPNMNEWNRYSIEQRIRLMFVLKGKVADDFLKTIPILSMAKRIMICRIETHGTVELDEKRRIRKYTSNDGKLSLKKPLTDDTSCPTNIRFMDFLIQNTKDGAESIRLIYNEFALLEGNVLSASTYSSRFCKKLAPKMSQWSNYRIEDRIRMMFALKGKVESDFLAQMIQSGAVQLDENYRIVRYTSNNGKVELSEKRSGVKRRSSTKSSKTLGKRRQVIEKELSDLDEPEFVGIMHGYPKQEPVYEEIINQDMRYNNEDPHIPPEIEQFPIQAVHLEEPKFDPISSMNIGRGTLAQRFGTTSSESDGISVHNFLISLELILTSLESDTLIDLMREIKELRNRTNDEILPPDLVIPALQTCFMGITRKFRPEVSAPSKSAGECLRILKYSLLWLQSPLLYDLQKRVQEEIENCGADGKVIPIADIQQGIRNILFAVSI,not soluble
13,MDQLWANRAASAEAAITERHLKKLWGLPGTQLGVVAWPPARKYTLFGTWHYWWQAHLLDCLVDAQVRDPQPERTTRIERQLRAHRLRNNLSWVNDYYDDMAWLALAIERAGRLAGVEKPTALRKLCDQFVTAWVPEDGGGIPWRKQDQFFNAPANGPAGIFLARYDDRLRRAQQMADWIDETLIDPDTHLVFDGIKAGSLVRAQYTYCQGVVLGLEVELAVRTQDPRHAPRVRRLVAAVDKEMTTDGVIKGAGGGDGGLFNGILARYLALVATTLPGETPEDIAARDTARTIVLKSARSAWDHRQTVDGLPLFSAFWDRNAEIPTAGGKEAEFVEGAVNASSVPERDLSVQLAGWMLMEAAHSVDSVDAEDAAGDQNGAGDGEVGHDENEDEELEHHHHHH,soluble
14,MGSDKIHHHHHHMNRGKALQLVKPHLTEHRYQHTIGVMETAIDLAKLYGADQQKAELAAIFHDYAKFRDKNEMRTLIREKLSQQDILFYGDELLHAPCGAYYVREEVGIEDEDVLQAIRFHTTGRPNMSLLEKIIFLADYIEPNRQFPGVEKVRTQAKTDLNGAIISSLVNTITFLLKKNQPIYPDTLATYNQLLLEQK,not soluble
15,MAATNHAQAIKKDTKDFITTALLQMLAKEKLQALTVSQICKRAGVSRMAFYRNFNGLEQILYEYYQPKIGAMFDTIRENPQFSAKFDSQLKFFNTFGDDIILSIDRGFEPIIQQIFKEEIEKFYFKDNDEHWTTFMSAGVYAIWRKWLLDGRQKPLKEIMDFFKQFDMIKGNV,not soluble
16,MSLPDTSPDLPAMSPLAVYRQAVEQRGFAPDEAQRRAAEALERCFQALHEAHRHGAIQGVYLWGPVGRGKTWLMDHFYQCLRVPARRQHFHHFMQWVHQRQFELTGTADPLRALARELARDVRVLCFDELFVSDIGDAILLGSLLRIMFEEGVVLVATSNQPPEQLYADGFNRERFLPAIEAIQRHMAVVAVDGGQDHRLHPGRAEQRYWVVEAGQASGFAELFARLSAGEAASTQPIELGHRPLAVHRHSESVLWCSYAQLCEAPLSALDFIGLCDRYRAILMDDLPCLSASQREGRIARGTEDGAQLVEAGDRELPQLSVHDDGVRRFIALVDECYDRKVPLYLEARVPLEALYTEGYLAFAFRRTLSRLREMQLARFGSDSEGGSHHHHHH,soluble
17,MAALRYAGLDDTDSEDELPPGWEERTTKDGWVYYANHTEEKTQWEHPKTGKRKRVAGDLPYGWEQETDENGQVFFVDHINKRTTYLDPRLAFTVDDNPTKPTTRQRYDGSTTAMEILQGRDFTGKVVLVTGANSGIGFETAKSFALHGAHVILACRNLSRASEAVSRILEEWHKAKVEAMTLDLAVLRSVQHFAEAFKAKNVSLHVLVCNAGTFALPWGLTKDGLETTFQVNHLGHFYLVQLLQDVLCRSSPARVIVVSSESHRFTDINDSSGKLDLSRLSPPRSDYWAMLAYNRSKLCNILFSNELHRRLSPRGVTSNAVHPGNMMYSAIHRNSWVYKLLFTLARPFTKSMQQGAATTVYCAVAPELEGLGGMYFNNCCRCLPSEEAQSEETARALWELSERLIQDRLGSPSS,soluble
18,MAFDGLFTRAITHEIANSLYTGRISKIYQPSKYEILLHIRANGKNQKLILSAHPTYARLHLTNQNYDSPALPPMFCMLLRKHLEGGFIEKIEQIDLERIIQITVRSRNEIGDESLKTLVIEIMGRHSNIILVDTKTNNILDSLKHVSLAVNRHRTVYAGAEYIAPPVQHKINPLQIETNDEFIRPLDFLSGNMDKQLVGTFTGISPLFAKEVVKKAGMVNEKALADAFFSIQKPLLTHTYSPTMTTSNGKEFFYLFPLAHLAGENKTFSSVSELLDRFFFGKAERDRVKQQAHDLERFMQNEKNKNEKKLIKLEKTLQDAGKADKYQLFGELLTANMYALKKGDKDIEVVNYYDENGGTVKIALDPLKTPSENAQRYFQKYQKAKNSIVVVEEQIEKTKEEILYFDSLLQQMEAASSKDIEEIREELAEEGYMRNRKTKNAKKKPTKPVLDKYVASDGTEIFVGKNNKQNDYLTTKFARRDEIWLHTKDIPGSHVVIRSLEPAEETLLEAAKIAAYYSKAKESSSVPVDFTKIRHVKKPSGAKLGFVTYDNQQTVYVTPDADTVMKLKA,not soluble
19,MSLTISNEDNMILMSRYPDKYFDLAIVDPPYGILNKTKRGGDYKFNMNEYSQWDIKPDQTYFNELFRVSKNQIIWGGNYFGELWLRSEYNKGFIIWDKNQPETLNNFSMAEMAWSSFDRPSKIFRFSVRKNRNKTHPTQKPVELYQWLLKMYAKQGDKILDTHLGSGTLAIACCIAQFDLTACEINSDYYQQSIEKIKNNLPEARISFGHPGYCIIEEGGSHHHHHH,soluble
20,MSGKPPAIFLMGPTAAGKTDLAIELTTVLPCELISVDSALVYRGMDIGSAKPSKEVLAAHPHRLIDILDPAQSYSAAQFRADALEAMAEITARGKIPLLVGGTMLYYKALIDGLADMPAADATVRAELEAQAEALGLAELHRQLAEVDPESAARIHPNDPQRLIRALEVYRVSGESMTAHRRRQFAESRGADAGAGGHLPYTVASLAIAPTDRHILHQRIALRFSQMLEQGFVDEVRSLRARSDLHAGLPSIRAVGYRQVWDYLDGKLTENEMRERGIIATRQLAKRQFTWLRGWPEVHWLDSLACDNLSRTLKYLGAISILSLEHHHHHH,soluble
